Data: PMC2916698 (Journal of cellular physiology, 2010)
One block for each binder: values may come before it.

Key:
Experiment in all cases: two-hybrid
[1] = molecular target: Gal4-SRC-1 (Steroid Receptor Coactivator-1) (UniProt Q15788 1-1441)
[2] = molecular target: T1, Gal4-mouse RXRα ligand binding domain (LBD) (mouse, UniProt P28700 232-467)
T1 sequence (looked up): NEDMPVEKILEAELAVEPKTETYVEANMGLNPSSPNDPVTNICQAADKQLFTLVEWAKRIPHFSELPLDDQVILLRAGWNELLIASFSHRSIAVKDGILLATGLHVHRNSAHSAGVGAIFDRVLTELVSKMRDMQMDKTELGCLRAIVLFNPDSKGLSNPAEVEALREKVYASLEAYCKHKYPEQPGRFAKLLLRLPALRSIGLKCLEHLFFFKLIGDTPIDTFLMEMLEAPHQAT

[3] = molecular target: T2, Gal4-RXRα AF-1 (first 135 amino acids of human RXRα) (human, UniProt P19793 1-135)
T2 sequence (looked up): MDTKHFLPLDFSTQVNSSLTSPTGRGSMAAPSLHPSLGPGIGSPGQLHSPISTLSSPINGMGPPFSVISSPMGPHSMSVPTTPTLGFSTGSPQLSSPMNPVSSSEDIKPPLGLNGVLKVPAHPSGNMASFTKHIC

Gal4-SRC-1 (Steroid Receptor Coactivator-1), sequence (Q15788 whole entry, the tested form may be a part): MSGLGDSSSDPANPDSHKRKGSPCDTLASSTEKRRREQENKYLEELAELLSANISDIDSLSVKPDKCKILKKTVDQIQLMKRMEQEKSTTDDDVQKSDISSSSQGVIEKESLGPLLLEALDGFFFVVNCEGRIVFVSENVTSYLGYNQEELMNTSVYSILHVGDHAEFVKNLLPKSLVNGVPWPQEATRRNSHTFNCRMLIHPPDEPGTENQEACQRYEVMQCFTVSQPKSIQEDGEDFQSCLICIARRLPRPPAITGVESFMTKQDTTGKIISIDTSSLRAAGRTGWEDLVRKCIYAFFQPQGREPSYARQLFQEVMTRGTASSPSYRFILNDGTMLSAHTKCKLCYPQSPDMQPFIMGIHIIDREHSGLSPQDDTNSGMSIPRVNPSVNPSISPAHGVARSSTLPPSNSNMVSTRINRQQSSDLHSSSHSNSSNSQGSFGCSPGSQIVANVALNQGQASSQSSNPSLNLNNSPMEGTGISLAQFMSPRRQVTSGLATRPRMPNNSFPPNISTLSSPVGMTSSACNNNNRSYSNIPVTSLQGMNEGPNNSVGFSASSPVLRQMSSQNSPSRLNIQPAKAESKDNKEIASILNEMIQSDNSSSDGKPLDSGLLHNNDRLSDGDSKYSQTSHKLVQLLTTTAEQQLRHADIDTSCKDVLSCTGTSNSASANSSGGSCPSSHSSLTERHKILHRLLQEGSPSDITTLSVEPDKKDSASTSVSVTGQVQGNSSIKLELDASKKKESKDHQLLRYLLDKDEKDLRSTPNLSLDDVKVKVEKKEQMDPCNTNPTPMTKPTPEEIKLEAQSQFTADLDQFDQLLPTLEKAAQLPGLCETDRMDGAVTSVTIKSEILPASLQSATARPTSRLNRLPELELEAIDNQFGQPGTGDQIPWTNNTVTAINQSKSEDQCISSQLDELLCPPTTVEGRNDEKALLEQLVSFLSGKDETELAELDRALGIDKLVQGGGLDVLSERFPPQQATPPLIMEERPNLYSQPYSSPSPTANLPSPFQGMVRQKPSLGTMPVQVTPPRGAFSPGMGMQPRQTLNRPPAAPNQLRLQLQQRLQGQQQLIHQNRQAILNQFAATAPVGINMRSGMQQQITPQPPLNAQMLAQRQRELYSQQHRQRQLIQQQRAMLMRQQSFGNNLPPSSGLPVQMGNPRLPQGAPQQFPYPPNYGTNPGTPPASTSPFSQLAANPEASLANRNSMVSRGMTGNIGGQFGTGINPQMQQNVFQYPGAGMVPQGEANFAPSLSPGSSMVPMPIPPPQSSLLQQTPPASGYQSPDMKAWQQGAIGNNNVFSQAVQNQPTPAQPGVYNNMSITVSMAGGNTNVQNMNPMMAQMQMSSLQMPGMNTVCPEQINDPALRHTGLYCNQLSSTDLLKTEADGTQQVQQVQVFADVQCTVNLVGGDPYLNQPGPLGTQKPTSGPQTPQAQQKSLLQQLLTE

fold induction of the two-hybrid signal by 1,25(OH)2D3, RWPE1 cells [1]: 2.6 fold
B1: VP16-mouse RXRα-LBD (domain or fragment, UniProt P28700 232-467, looked up)
chain: T1 sequence (looked up)

fold induction of the two-hybrid signal by 1,25(OH)2D3, RWPE2 cells [1]: 10.4 fold
fold induction of the two-hybrid signal by 1,25(OH)2D3, RWPE1 cells [2]: 111 fold
fold induction of the two-hybrid signal by 1,25(OH)2D3, RWPE2 cells [2]: 178 fold
B2: VP16-rat VDR-LBD (domain or fragment, UniProt P13053 127-423, looked up)
chain: EQQHIIAILLDAHHKTYDPTYADFRDFRPPVRMDGSTGSYSPRPTLSFSGNSSSSSSDLYTTSLDMMEPSGFSNLDLNGEDSDDPSVTLDLSPLSMLPHLADLVSYSIQKVIGFAKMIPGFRDLTSDDQIVLLKSSAIEVIMLRSNQSFTMDDMSWDCGSQDYKYDVTDVSKAGHTLELIEPLIKFQVGLKKLNLHEEEHVLLMAICIVSPDRPGVQDAKLVEAIQDRLSNTLQTYIRCRHPPPGSHQLYAKMIQKLADLRSLNEEHSKQYRSLSFQPENSMKLTPLVLEVFGNEIS

two-hybrid signal above the empty GAL4 vector control, RWPE1 cells [3]: 8.2 fold
B3: VP16-SRC-1 (natural protein)
chain: not shown
